We go through 5 molecules from PMC4705692.

Holding throughout (assay): EMSA
For data set [1], the target named is T1, Orf1 (HTH_42 DNA glycosylase) (Streptomyces sahachiroi ATCC33158, UniProt B4XYC8 1-371).
T1 sequence: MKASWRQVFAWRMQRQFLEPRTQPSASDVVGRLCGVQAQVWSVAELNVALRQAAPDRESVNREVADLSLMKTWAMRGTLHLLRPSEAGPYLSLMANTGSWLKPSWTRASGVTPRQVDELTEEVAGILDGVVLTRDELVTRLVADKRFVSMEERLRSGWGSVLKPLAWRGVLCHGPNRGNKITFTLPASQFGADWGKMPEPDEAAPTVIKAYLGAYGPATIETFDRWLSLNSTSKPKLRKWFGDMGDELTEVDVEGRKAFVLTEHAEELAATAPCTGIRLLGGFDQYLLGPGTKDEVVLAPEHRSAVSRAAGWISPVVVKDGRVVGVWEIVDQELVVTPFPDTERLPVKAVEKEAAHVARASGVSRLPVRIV

In data set [2] the target is T1, Orf1 (HTH_42 DNA glycosylase). This is another data set of the same source.
For data set [3] the target is unchanged. The source holds these as a separate data set.

Read-outs that look alike come from different tables or passages of the source.

B1: GCT ODN (dsDNA)
DNA 1: TATTATTATGCTATTATTATT
DNA 2: AATAATAATAGCATAATAATA
As for B1, in data set [1], the binding result is given as “binds”.

B2: AAT ODN (dsDNA)
DNA 1: TATTATTATATTATTATTATT
DNA 2: AATAATAATAATATAATAATA
For B2, the binding result in data set [1] is given as “binds”.

B3: GCC ODN azinomycin B-adducted (dsDNA)
DNA 1: TATTATTATGCCATTATTATT
DNA 2: AATAATAATGGCATAATAATA
modifications: azinomycin B interstrand cross-link G-G at the GCC site (mixture with monoadduct possible)
Take B3: the binding result in data set [2] is on record as “binds”.

B4: GAT ODN (dsDNA)
DNA 1: TATTATTATGATATTATTATT
DNA 2: AATAATAATATCATAATAATA
Regarding B4, the binding result in data set [1] is listed as “binds”.

B5: GCC ODN (dsDNA)
DNA 1: TATTATTATGCCATTATTATT
DNA 2: AATAATAATGGCATAATAATA
For the molecule B5, the binding result in data set [3] was “binds”.
